The results in this text go back to patent US20140148387A1.

The target in experiment [1] is T1, activine type IIB receptor (ActRIIB) extracellular domain.
T1 sequence (Q13705 19-137, species assumed, looked up): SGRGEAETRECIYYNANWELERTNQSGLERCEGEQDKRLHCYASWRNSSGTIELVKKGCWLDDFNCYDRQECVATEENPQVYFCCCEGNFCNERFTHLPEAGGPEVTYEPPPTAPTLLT
In words: SPR, BIAcore 2000; analyte Ala-BMP-2, ligand ActRIIBecd; redissolved freeze-dried preparation at start of test. Background: Surface plasmon resonance follows binding to a sensor surface in real time, without labels.

The target is the same in experiment [2]. In words: SPR, BIAcore 2000; analyte Ala-BMP-2, ligand ActRIIBecd; freeze-dried preparation preserved at 5 ± 3° C. for 3 months.
The target is the same in experiment [3]. In words: SPR, BIAcore 2000; analyte Ala-BMP-2, ligand ActRIIBecd; freeze-dried preparation preserved at 25 ± 2° C., relative humidity 60 ± 5%, for 3 months.
The target is the same in experiment [4]. Nature of the experiment: SPR, BIAcore 2000; analyte Ala-BMP-2, ligand ActRIIBecd; freeze-dried preparation preserved at 40 ± 2° C., relative humidity 75 ± 5%, for 3 months.

B1: active type human bone morphogenetic protein-2 homodimer added with an alanine residue to the N-terminus (ligand)
chain: AQAKHKQRKRLKSSCKRHPLYVDFSDVGWNDWIVAPPGYHAFYCHGECPFPLADHLNSTNHAIVQTLVNSVNSKIPKACCVPTELSAISMLYLDENEKVVLKNYQDMVVEGCGCR
As to B1, the Biacore assay, relative value to provisional reference substance of Ala-BMP-2 as 100% in experiment [1] was determined as 98.2%; in experiment [2] it was 100%; in experiment [3], 98.9%; in experiment [4] it was 97.7%.
